Several values for one entry are separate records, joined by “and”; a condition that tells them apart may be missing. Equal entries are not always repeated. Values belong to the molecule of their own block, whether it stands above or below them.
What was measured:
[1] = target: T1, OsCyc1 (full-length) (Oryza sativa, UniProt Q0JF02); details: pH 8.0, 16 °C, 2 h, no added Mg2+; product syn-CPP
T1 construct: gene CPS4

[2] = target: T2, OsCyc1^69–767 (Oryza sativa, UniProt Q0JF02, D367A); details: 0.1 mM GGPP soaked; 20 mM Tris-HCl pH 8.0, 200 mM NaCl, 2 mM DTT, 5 mM MgCl2; active site between beta and gamma domains
T2 construct: gene CPS4
T2 sequence (Q0JF02 69-767 D367A): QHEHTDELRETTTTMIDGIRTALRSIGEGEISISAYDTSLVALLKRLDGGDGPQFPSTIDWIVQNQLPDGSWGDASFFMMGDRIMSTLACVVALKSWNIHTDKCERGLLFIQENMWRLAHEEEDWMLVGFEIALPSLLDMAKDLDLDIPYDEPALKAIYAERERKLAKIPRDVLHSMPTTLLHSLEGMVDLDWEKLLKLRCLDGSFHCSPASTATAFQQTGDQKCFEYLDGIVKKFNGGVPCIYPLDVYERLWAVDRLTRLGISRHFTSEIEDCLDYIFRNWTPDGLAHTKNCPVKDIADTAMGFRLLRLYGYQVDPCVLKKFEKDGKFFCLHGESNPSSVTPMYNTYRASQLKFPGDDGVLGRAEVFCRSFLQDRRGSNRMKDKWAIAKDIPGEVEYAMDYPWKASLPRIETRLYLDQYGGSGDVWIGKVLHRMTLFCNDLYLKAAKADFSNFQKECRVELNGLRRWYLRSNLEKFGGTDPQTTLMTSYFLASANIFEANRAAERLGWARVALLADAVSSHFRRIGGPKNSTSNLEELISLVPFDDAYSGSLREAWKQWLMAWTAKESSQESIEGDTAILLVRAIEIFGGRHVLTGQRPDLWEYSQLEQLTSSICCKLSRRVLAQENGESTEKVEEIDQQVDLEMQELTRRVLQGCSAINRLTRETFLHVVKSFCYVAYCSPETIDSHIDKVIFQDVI

[3] = target: OsCyc1^D367A mutant (in complex with the substrate GGPP) (Oryza sativa) (UniProt Q0JF02); test: cryo-EM structure; OsCyc1 D367A at 3 mg/mL in buffer B, soaked with 0.1 mM GGPP; hexamer used as initial model for 3D classification; 4.0 Å
[4] = target: the molecule itself; test: cryo-EM structure; WT OsCyc1 at 1.8 mg/mL in buffer B (20 mM Tris-HCl pH 8.0, 200 mM NaCl, 2 mM DTT, 5 mM MgCl2); dimers, tetramers and hexamers selected separately after 2D classification
[5] = target: the molecule itself; test: crystal structure; OsCyc1 69-767 at 10 mg/mL, hanging drop, 18 °C, 2% 1,4-dioxane, 0.1 M Tris pH 8.0, 15% PEG 3,350; space group P212121, hexamer in the asymmetric unit; 3.5 Å

T1 sequence (Q0JF02 whole entry): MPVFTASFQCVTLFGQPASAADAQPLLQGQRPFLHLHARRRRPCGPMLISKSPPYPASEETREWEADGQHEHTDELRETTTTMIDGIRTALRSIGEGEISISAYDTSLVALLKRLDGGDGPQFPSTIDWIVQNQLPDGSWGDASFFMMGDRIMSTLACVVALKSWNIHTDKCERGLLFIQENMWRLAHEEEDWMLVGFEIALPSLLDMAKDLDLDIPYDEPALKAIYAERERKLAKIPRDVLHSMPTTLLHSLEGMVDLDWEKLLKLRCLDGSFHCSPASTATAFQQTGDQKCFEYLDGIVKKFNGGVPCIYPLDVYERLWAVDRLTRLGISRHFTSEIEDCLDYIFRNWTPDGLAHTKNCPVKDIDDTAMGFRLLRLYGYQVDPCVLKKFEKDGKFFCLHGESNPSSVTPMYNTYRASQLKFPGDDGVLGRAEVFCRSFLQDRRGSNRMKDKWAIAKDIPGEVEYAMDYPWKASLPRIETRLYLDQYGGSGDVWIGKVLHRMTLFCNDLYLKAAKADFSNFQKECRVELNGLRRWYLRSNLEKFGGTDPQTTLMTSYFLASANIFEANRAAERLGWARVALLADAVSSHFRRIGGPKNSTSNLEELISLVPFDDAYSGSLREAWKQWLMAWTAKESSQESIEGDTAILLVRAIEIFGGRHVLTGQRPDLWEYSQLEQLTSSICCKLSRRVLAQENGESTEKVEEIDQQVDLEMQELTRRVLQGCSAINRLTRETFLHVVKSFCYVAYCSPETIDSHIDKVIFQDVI

B1: OsCyc1, wild type, as used for cryo-EM (enzyme, Oryza sativa)
chain: LISKSPPYPASEETREWEADGQHEHTDELRETTTTMIDGIRTALRSIGEGEISISAYDTSLVALLKRLDGGDGPQFPSTIDWIVQNQLPDGSWGDASFFMMGDRIMSTLACVVALKSWNIHTDKCERGLLFIQENMWRLAHEEEDWMLVGFEIALPSLLDMAKDLDLDIPYDEPALKAIYAERERKLAKIPRDVLHSMPTTLLHSLEGMVDLDWEKLLKLRCLDGSFHCSPASTATAFQQTGDQKCFEYLDGIVKKFNGGVPCIYPLDVYERLWAVDRLTRLGISRHFTSEIEDCLDYIFRNWTPDGLAHTKNCPVKDIDDTAMGFRLLRLYGYQVDPCVLKKFEKDGKFFCLHGESNPSSVTPMYNTYRASQLKFPGDDGVLGRAEVFCRSFLQDRRGSNRMKDKWAIAKDIPGEVEYAMDYPWKASLPRIETRLYLDQYGGSGDVWIGKVLHRMTLFCNDLYLKAAKADFSNFQKECRVELNGLRRWYLRSNLEKFGGTDPQTTLMTSYFLASANIFEANRAAERLGWARVALLADAVSSHFRRIGGPKNSTSNLEELISLVPFDDAYSGSLREAWKQWLMAWTAKESSQESIEGDTAILLVRAIEIFGGRHVLTGQRPDLWEYSQLEQLTSSICCKLSRRVLAQENGESTEKVEEIDQQVDLEMQELTRRVLQGCSAINRLTRETFLHVVKSFCYVAYCSPETIDSHIDKVIFQDVI
notes: syn-copalyl diphosphate synthase OsCyc1 (OsCPS4), Oryza sativa, wild type; the cryo-EM methods say only 'OsCyc1'); the deposited entries tell the construct; Probably the same protein as m1 or m2; also called WT OsCyc1; source: E. coli BL21(DE3), purified; in buffer B
stoichiometry N [4]: 2 and 4 and 6

B2: OsCyc1^69–767 (N-terminal truncation variant of syn-copalyl diphosphate synthase from Oryza sativa) (enzyme, UniProt Q0JF02 69-767, looked up)
chain: QHEHTDELRETTTTMIDGIRTALRSIGEGEISISAYDTSLVALLKRLDGGDGPQFPSTIDWIVQNQLPDGSWGDASFFMMGDRIMSTLACVVALKSWNIHTDKCERGLLFIQENMWRLAHEEEDWMLVGFEIALPSLLDMAKDLDLDIPYDEPALKAIYAERERKLAKIPRDVLHSMPTTLLHSLEGMVDLDWEKLLKLRCLDGSFHCSPASTATAFQQTGDQKCFEYLDGIVKKFNGGVPCIYPLDVYERLWAVDRLTRLGISRHFTSEIEDCLDYIFRNWTPDGLAHTKNCPVKDIDDTAMGFRLLRLYGYQVDPCVLKKFEKDGKFFCLHGESNPSSVTPMYNTYRASQLKFPGDDGVLGRAEVFCRSFLQDRRGSNRMKDKWAIAKDIPGEVEYAMDYPWKASLPRIETRLYLDQYGGSGDVWIGKVLHRMTLFCNDLYLKAAKADFSNFQKECRVELNGLRRWYLRSNLEKFGGTDPQTTLMTSYFLASANIFEANRAAERLGWARVALLADAVSSHFRRIGGPKNSTSNLEELISLVPFDDAYSGSLREAWKQWLMAWTAKESSQESIEGDTAILLVRAIEIFGGRHVLTGQRPDLWEYSQLEQLTSSICCKLSRRVLAQENGESTEKVEEIDQQVDLEMQELTRRVLQGCSAINRLTRETFLHVVKSFCYVAYCSPETIDSHIDKVIFQDVI
notes: plastid targeting peptide removed; codon-optimized synthetic gene; monomer 80.8 kDa; Cloned in pET-24a(+) between NdeI and XhoI 'including a His-tag'; this cloning would usually give a C-terminal His6 (surmise); also called truncated OsCyc1; pseudo-mature protein
stoichiometry N [5]: 6

More lines, main results first:

GC-MS of dephosphorylated product [1]: OsCyc1 catalyzes GGPP to form syn-CPP
Molecule: CC(C)=CCC/C(C)=C/CC/C(C)=C/CC/C(C)=C/COP(=O)(O)OP(=O)(O)O [GGPP]
cryo-EM structure of the complex, 4.0 A [2]: cryo-EM structure of the OsCyc1^D367A mutant in complex with substrate GGPP

stoichiometry N [3]: 6
Molecule: OsCyc1^D367A mutant (in complex with the substrate GGPP) (from UniProt Q0JF02 69-767) (enzyme)

From article PMC10628199, “Structural and functional investigations of syn-copalyl diphosphate synthase from Oryza sativa” (Communications Chemistry, 2023)
